One variant from publication PMC13090976 (Cell Stress & Chaperones, 2026) can be followed below.

The chains are these.
B1: human CHIP-TPR (residues 21-154) [human] / biotin-… [modified: biotin, printed before the first residue (biotin-…); biotin, printed before the first residue (biotin-…)] [human] (parent)
chain 1: EKSPSAQELKEQGNRLFVGRKYPEAAACYGRAITRNPLVAVYYTNRALCYLKMQQHEQALADCRRALELDGQSVKAHFFLGQCQLEMESYDEAIANLQRAYSLAKEQRLNFGDDIPSALRIAKKKRWNSIEERR
chain 2: GSGSGPTIEEVD

This assay covers variants of B1. Nature of the assay: biolayer interferometry. To be noted: with biotin-… [modified: biotin, read off a plot.
Consider chain 1 G112N, for which the dissociation rate constant (koff) was found to be 0.0031 s⁻¹ and the association rate constant (kon) was 5800 M⁻¹ s⁻¹.
